Results reported in US20160091504A1 (UNIVERSITE LAVAL, published 2016).
One block for each molecule: values may come before it.

How the values were obtained:
[1] = target: p65 subunit of NF-κB expressed from pCMV-p65 (Homo sapiens (Human)) (UniProt Q04206); experiment: cell-based or functional assay
[2] = target: T1, p65 subunit of NF-κB expressed from pCMV-p65 (Homo sapiens (Human), UniProt Q04206 1-551, limits assumed); experiment: co-immunoprecipitation from transfected BV-2 cells
T1 construct: pCMV-p65 was a gift; also called NF-κB p65; REL-A
T1 sequence (Q04206 whole entry S180P): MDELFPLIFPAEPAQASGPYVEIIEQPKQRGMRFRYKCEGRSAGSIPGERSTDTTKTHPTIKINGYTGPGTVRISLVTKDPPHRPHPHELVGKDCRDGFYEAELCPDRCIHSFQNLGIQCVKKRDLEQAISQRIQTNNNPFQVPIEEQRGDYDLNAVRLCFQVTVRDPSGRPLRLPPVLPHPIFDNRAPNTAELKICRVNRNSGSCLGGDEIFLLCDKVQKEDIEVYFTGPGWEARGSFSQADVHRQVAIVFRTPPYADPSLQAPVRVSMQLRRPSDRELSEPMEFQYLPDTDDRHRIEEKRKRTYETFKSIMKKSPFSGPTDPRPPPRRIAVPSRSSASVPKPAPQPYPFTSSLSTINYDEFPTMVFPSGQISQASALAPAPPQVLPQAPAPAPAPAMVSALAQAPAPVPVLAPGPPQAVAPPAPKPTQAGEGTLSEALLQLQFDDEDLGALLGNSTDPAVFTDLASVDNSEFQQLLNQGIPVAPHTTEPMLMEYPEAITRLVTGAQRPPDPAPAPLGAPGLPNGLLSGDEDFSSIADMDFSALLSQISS

[3] = target: T1, p65 subunit of NF-κB expressed from …; experiment: cell-based or functional assay

Sequence of p65 subunit of NF-κB expressed from pCMV-p65 (Homo sapiens (Human)) (Q04206 whole entry S180P): as above

- decrease in NF-κB activation (4κB^wt-luc) with TDP-43 siRNA versus scrambled siRNA, 5 ng pCMV-p65 [1]: 3 fold
- decrease in NF-κB activation (4κB^wt-luc) with TDP-43 siRNA versus scrambled siRNA, 50 ng pCMV-p65 [1]: 2 fold
- decrease in NF-κB activation (4κB^wt-luc) with TDP-43 siRNA versus scrambled siRNA, 10 and 20 ng pCMV-p65 [1]: 2.5 fold
Molecule: endogenous mouse TDP-43 (from UniProt Q921F2 1-414)

- binding result [2]: no binding
- level of NF-κB activation detected by the 4κB^wt-luc reporter assay [3]: 6 fold lower
B1: TDP-43^ΔNR1-30 (31-81 and 98-176 AAs), N-terminal and RRM-1 deletion mutant with the NLS signal attached (other)
chain: MSEYIRVTEDENDEPIEIPSEDDGTVLLSTKRKMDETDASSAVKVKLPNSKQSQDEPLRSRKVFVGRCTEDMTEDELREFFSQYGDVMDVFIPKPFRAFAFVTFADDQIAQSLCGEDLIIKGISVHISNAEPKHNSNRQLERSGRFGGNPGGFGNQGGFGNSRGGGAGLGNNQGSNMGGGMNFGAFSINPAMMAAAQAALQSSWGMMGMLASQQNQSGPSGNNQNQGNMQREPNQAFGSGNNSYSGSNSGAAIGWGSASNAGSGSGFNGGFGSSMDSKSSGWGM
notes: The printed ranges in brackets are read as the deleted residues (31-81 and 98-176); not shown: HA (hemagglutinin) tag at the extreme C-terminus

- NF-κB gene activation (4κB^wt-luc reporter), compared to full length TDP-43^wt [3]: 2 fold
B2: TDP-43^ΔN (1-105AAs), HA-tagged deletion mutant (other, not shown: small tags and cut ends)
chain: LIVLGLPWKTTEQDLKEYFSTFGEVLMVQVKKDLKTGHSKGFGFVRFTEYETQVKVMSQRHMIDGRWCDCKLPNSKQSQDEPLRSRKVFVGRCTEDMTEDELREFFSQYGDVMDVFIPKPFRAFAFVTFADDQIAQSLCGEDLIIKGISVHISNAEPKHNSNRQLERSGRFGGNPGGFGNQGGFGNSRGGGAGLGNNQGSNMGGGMNFGAFSINPAMMAAAQAALQSSWGMMGMLASQQNQSGPSGNNQNQGNMQREPNQAFGSGNNSYSGSNSGAAIGWGSASNAGSGSGFNGGFGSSMDSKSSGWGM
